Assay results taken from patent publication US20240343803A1 (SHANDONG SIMCERE BIOPHARMACEUTICAL, published 2024).
Changes are numbered by the printed parent chain.

Assays:
[1] = target: T1, human TIGIT ECD-hFc (fusion protein of extracellular domain of human TIGIT and human IgG1 Fc fragment) (human); test: ELISA
T1 construct: entry includes the signal peptide, limits not readable here

[2] = target: T2, cynomolgus monkey TIGIT ECD-hFc (extracellular domain of cynomolgus monkey TIGIT and human IgG1 Fc fragment) (cynomolgus monkey); test: ELISA
T2 construct: entry includes the signal peptide, limits not readable here; also called cynomolgus monkey TIGIT-hFc

[3] = target: T3, full-length cynomolgus monkey TIGIT on CHO-K1 cells (CHO-K1 cynomolgus monkey TIGIT) (cynomolgus monkey); test: cell ELISA
T3 construct: NCBI XP_015300911.1; also called cynomolgus monkey TIGIT cells
Experimental: (§1) After discarding the culture supernatant, the cells were fixed with a cell fixation solution (Beyotime, CAT #P0098), 50 μL/well, at room temperature for 1 hour. After washing once with 0.05% Tween 20-PBS on the Microplate Washer, the plate was added with 5% skim milk powder-PBS, 250 μL/well, and incubated at 37° C. for 2-4 hours. After washing 3 times with 0.05% Tween 20-PBS on the Microplate Washer, the plate was added with purified mouse monoclonal antibodies (diluted to 13 nM with 1% BSA, diluted by 3 fold serial dilution for 12 concentration points), 50 µL/well, incubated at 37° C. for 1.5-2 hours. […] After washing 3 times with 0.05% Tween 20-PBS on the Microplate Washer, the plate was added with TMB chromogenic solution (KPL, CAT #52-00-03), 50 μL/well, and incubated at 37° C. for 10 minutes. 1M HCL, 50 μL/well, was then added into the plate to terminate the reaction, and the OD450 nm was read by a microplate reader (Biotek, Powerwave HT). […] (c) The effect of anti-TIGIT mouse monoclonal antibodies blocking the interaction between Bio-CD155-His and CHO-K1 human TIGIT detected by FACS

[4] = target: T4, human TIGIT ECD-his (fusion protein of extracellular domain of human TIGIT and His-tag) (human); test: BIAcore kinetics
T4 construct: entry includes the signal peptide, limits not readable here
T4 chain: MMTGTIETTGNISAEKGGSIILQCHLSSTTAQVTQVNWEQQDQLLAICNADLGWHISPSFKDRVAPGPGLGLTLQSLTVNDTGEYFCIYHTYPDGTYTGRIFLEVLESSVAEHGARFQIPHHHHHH

[5] = target: T5, full-length human TIGIT on CHO-K1 cells (CHO-K1 human TIGIT) (human, UniProt Q495A1 22-244); test: cell ELISA, low expression strain
T5 construct: NCBI XP_024309156.1; entry includes the signal peptide; also called high expression strain 1D2; medium expression strain 2D10
T5 sequence: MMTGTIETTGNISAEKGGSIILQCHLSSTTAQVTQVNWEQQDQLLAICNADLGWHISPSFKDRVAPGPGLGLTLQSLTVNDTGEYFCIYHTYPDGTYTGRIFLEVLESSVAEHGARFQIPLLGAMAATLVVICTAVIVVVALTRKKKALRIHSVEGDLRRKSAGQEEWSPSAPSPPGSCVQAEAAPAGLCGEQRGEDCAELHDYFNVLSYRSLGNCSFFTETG
Experimental: as §1

[6] = target: T5, full-length human TIGIT on CHO-K1 cells …; test: cell ELISA, high expression strain
Experimental: as §1

[7] = target: T5, full-length human TIGIT on CHO-K1 cells …; test: cell ELISA, medium expression strain
Experimental: as §1

[8] = target: T5, full-length human TIGIT on CHO-K1 cells …; test: FACS, competition: Bio-CD155-His to CHO-K1 human TIGIT
Experimental: The collected cells were washed once with PBS (Hyclone, CAT #SH30256), resuspended to 2×10⁵/40 μL with 1% BSA-PBS. The antibodies were diluted to 210 nM with 1% BSA-PBS (diluted by 3-fold serial dilution for 12 concentration points). […] The 40 μL cells were then mixed with 40 μL diluted antibodies and 40 μL diluted Bio-CD155-His, and then incubated at 4° C. for 60 minutes. The cells were washed twice with PBS, resuspended with APC labeled streptavidin (dilution ratio 1:1700, Biolegend, 405243), 100 μL/well, and incubated at 4° C. for 40 minutes. The cell samples were washed twice with PBS, resuspended with 1% BSA-PBS, 100 μL/well and then analyzed by flow cytometry (BD, Canto II). […] (d) The effect of anti-TIGIT mouse monoclonal antibodies blocking the interaction between human TIGIT and CHO-K1 CD155 detected by ELISA

[9] = target: T1, human TIGIT ECD-hFc (fusion protein of …); test: cell ELISA, competition: hTIGIT ECD-hFc to CHO-K1 CD155
Experimental: After discarding the culture supernatant, the cells were fixed with a cell fixation solution (Beyotime, CAT #P0098), 50 μL/well, at room temperature for 1 hour. After washing once with 0.05% Tween 20-PBS on the Microplate Washer, the plate was added with 5% skim milk powder-PBS, 250 μL/well, and incubated at 37° C. for 2-4 hours. The plate was then washed 3 times with 0.05% Tween 20-PBS on the Microplate Washer. The mouse monoclonal antibodies were mixed with human TIGIT ECD-hFc (working concentration: 30 ng/mL) and incubated for 0.5 hour. The mixed solution of antigen and antibody was added to the cell plate (50 μL/well). The cells were incubated at 37° C. for 1.5-2 hours and then washed with 0.05% Tween 20-PBS for 3 times on the Microplate Washer. The cell plate was then added with 50 μL/well HRP enzyme-labeled antibodies (Merck, CAT #AP113P) diluted with 1% BSA (Sangon Biotech, CAT #A500023-0100)-PBS at a dilution ratio of 1:5000 and incubated at 37° C. for 1 hour. After washing 3 times with 0.05% Tween 20-PBS on the Microplate Washer, the plate was added with TMB chromogenic solution (KPL, CAT #52-00-03), 50 μL/well, and incubated at 37° C. for 10 minutes. 1M HCL, 50 μL/well, was then added into the plate to terminate the reaction, and the OD450 nm was read by a microplate reader (Biotek, Powerwave HT).

B1: TIGIT-F2-002 (antibody, V domains shown)
VH: EVQLQESGPGLAKPSQTLSLACSVTGYSITSDSWNWIRKFPGNKLEYMGYISYSGNTYYNPSLKSRISITRDTSKNQFYLQLNSVTTEDTATYYCARLDFSNYGGAVDYWGQGTSVTVSS
VL: DIVMTQSHTFMSTSVGDRVSITCKASQNVRTAVAWYQQKPGQSPKLMIYSASYRYTGVPDRFTGSGSGTDFTFTISSVQAEDLAVYYCQQYYTTPWTFGGGAKLEIQ
notes: mouse hybridoma antibody; variable domains are those printed for the chimeric TIGIT-CHI-002 built from the mouse antibody; tie rests on the number 002 only; also called mouse antibody TIGIT-002
[1]
  EC50: 17.1 pM
[2]
  EC50: 17 pM
[3]
  EC50: 110 pM
[4]
  Kd: 47.6 pM
  koff: 8.08e-05 s⁻¹
  kon: 1.7e+06 M⁻¹ s⁻¹
[5]
  EC50: 273 pM
[6]
  EC50: 312 pM
[7]
  EC50: 316 pM
[8]
  IC50: 204 pM
[9]
  IC50: 141 pM

B2: TIGIT-F2-006 (antibody, V domains shown)
VH: B1 VH with L18P, A21T, I29M, S33Y, N56R, L98G, F100Y, V107M, D108Y, Y109D
VL: DIVMTQSHKFMSTSVGDRVSITCRASQGVSTTIAWYQQKPGQSPKLLIYSASYRYTGVPDRFTGSGSGTDFTFTISGVQAEDLAVYYCQQYYSSPFTFGGGTKLEIK
notes: mouse hybridoma antibody; variable domains as printed for TIGIT-CHI-006; tie rests on the number 006 only; also called mouse antibody TIGIT-006
[1]
  EC50: 20.8 pM
[2]
  EC50: 32.7 pM
[3]
  EC50: 61.6 pM
[4]
  Kd: 41.4 pM
  koff: 3.32e-05 s⁻¹
  kon: 800000 M⁻¹ s⁻¹
[5]
  EC50: 320 pM
[6]
  EC50: 480 pM
[7]
  EC50: 540 pM
[8]
  IC50: 215 pM
[9]
  IC50: 150 pM

B3: TIGIT-F2-005 (antibody, V domains shown)
VH: QVQLQQSGAELVRPGTSVKVSCKASGYAFTNYLIEWVKQRPGQGLEWIGVINPGSGGTNYKEKFKGKATLTADKSSSTAYMQLSSLTSEDSAVYFCARGEYFFFDYWGQGTTLTVSS
VL: DIVMTQSHKFMSTSVGDRVSITCKASQHVSNGVAWYQHKPGQSPKLLIYSASYRYTGVPDRFTGTGSGTDFTFTISSVQAEDLAVYYCQQHYNTPHTFGGGTKLEIK
notes: mouse hybridoma antibody; variable domains as printed for TIGIT-CHI-005; tie rests on the number 005 only; also called mouse antibody TIGIT-005
[1]
  EC50: 15 pM
[2]
  EC50: 14.7 pM
[3]
  EC50: 77.8 pM
[4]
  Kd: 33.3 pM
  koff: 4.47e-05 s⁻¹
  kon: 1.34e+06 M⁻¹ s⁻¹
[5]
  EC50: 231 pM
[6]
  EC50: 388 pM
[7]
  EC50: 386 pM
[8]
  IC50: 174 pM
[9]
  IC50: 133 pM

B4: RG6058-mIgG2a (antibody, V domains shown)
VH: EVQLQQSGPGLVKPSQTLSLTCAISGDSVSSNSAAWNWIRQSPSRGLEWLGKTYYRFKWYSDYAVSVKGRITINPDTSKNQFSLQLNSVTPEDTAVFYCTRESTTYDLLAGPFDYWGQGTLVTVSS
VL: not shown
notes: mouse IgG2a format by its name; also called Roche RG6058; control antibody RG6058
[1]
  EC50: 10.8 pM
[2]
  EC50: 15.2 pM
[3]
  EC50: 79.1 pM
[4]
  Kd: 211 pM
  koff: 0.000141 s⁻¹
  kon: 669000 M⁻¹ s⁻¹
[5]
  EC50: 672 pM
[6]
  EC50: 1050 pM
[7]
  EC50: 984 pM
[8]
  IC50: 449 pM
[9]
  IC50: 212 pM

B5: TIGIT-F5-070 (antibody, V domains shown)
VH: QVQLQQPGTELVKPGASVKLSCRASGYTFTNYYMHWVKQRPGRGLEWIGRIDPDSGGSKYNEKFKSKATLTVDKLSSTAYMQLSSLTSEDSAVYYCAREGHYGFYSDYWGQGTTLTVSS
VL: DIQMTQSPASLSASVGETVTITCRVSENIYSYLAWYQQKQGKSPQLLVYNAKTLAEGVPSRFSGSGSGTQFSLKINSLQPEDFGNYYCQHHYGNPLTFGAGTKLDLK
notes: mouse hybridoma antibody; variable domains as printed for TIGIT-CHI-070; tie rests on the number 070 only; also called mouse antibody TIGIT-070
[1]
  EC50: 3.9 pM
[2]
  EC50: 4.3 pM
[3]
  EC50: 27.4 pM
[4]
  Kd: 155 pM
  koff: 0.000117 s⁻¹
  kon: 755000 M⁻¹ s⁻¹
[5]
  EC50: 375 pM
[6]
  EC50: 613 pM
[7]
  EC50: 664 pM
[8]
  IC50: 340 pM
[9]
  IC50: 136 pM
